Source: patent US20130183334A1

Key:
Assay in all cases: cell-based or functional assay
[1] = molecular target: HIV-1 NL4-3 Gag with HIV-1/SIVmac239 p6 chimera 17-25 (HIV-1 (NL4-3); SIVmac239)
[2] = molecular target: HIV-1 NL4-3 Gag with HIV-1/SIVmac239 p6 chimera 17-26 (HIV-1 (NL4-3); SIVmac239)
[3] = molecular target: HIV-1 NL4-3 Gag with HIV-1/SIVmac239 p6 chimera 17-38 (HIV-1 (NL4-3); SIVmac239)
[4] = molecular target: HIV-1 NL4-3 Gag with HIV-1/SIVmac239 p6 chimera 17-23(b) (HIV-1 (NL4-3); SIVmac239)
[5] = molecular target: HIV-1 NL4-3 Gag with p6 point mutation F17A (HIV-1 (NL4-3)) (UniProt P12493)
[6] = molecular target: HIV-1 NL4-3 Gag with HIV-1/SIVmac239 p6 chimera 17-48 (HIV-1 (NL4-3); SIVmac239)
[7] = molecular target: HIV-1 NL4-3 Gag with HIV-1/SIVmac239 p6 chimera 17-24 (HIV-1 (NL4-3); SIVmac239)
[8] = molecular target: HIV-1 NL4-3 Gag with p6 point mutation F15A (HIV-1 (NL4-3)) (UniProt P12493)
[9] = molecular target: HIV-1 NL4-3 Gag with HIV-1/SIVmac239 p6 chimera 17-27 (HIV-1 (NL4-3); SIVmac239)
[10] = molecular target: HIV-1 NL4-3 Gag with HIV-1/SIVmac239 p6 chimera 17-28 (HIV-1 (NL4-3); SIVmac239)

HIV-1 Vpr, myc-tagged (expression vector pcVpr.myc)
70: Vpr packaging into virions (immunoblot of pelleted virions) (% of wild-type) [10]
80: Vpr packaging into virions (immunoblot of pelleted virions) (% decrease against wild-type) [5] | Vpr packaging into virions (immunoblot of pelleted virions) (% decrease against wild-type) [8]
0.33: Vpr packaging into virions (immunoblot of pelleted virions) (fold of wild-type) [1] | Vpr packaging into virions (immunoblot of pelleted virions) (fold of wild-type) [2] | Vpr packaging into virions (immunoblot of pelleted virions) (fold of wild-type) [3] | Vpr packaging into virions (immunoblot of pelleted virions) (fold of wild-type) [4] | Vpr packaging into virions (immunoblot of pelleted virions) (fold of wild-type) [6] | Vpr packaging into virions (immunoblot of pelleted virions) (fold of wild-type) [7] | Vpr packaging into virions (immunoblot of pelleted virions) (fold of wild-type) [9]
